Patent publication US20260217793A1 (Chugai, published 2026)
Changes are numbered by the printed parent chain.

T1: FcγRIIa type R extracellular domain with C-terminal His tag (human, UniProt P12318 34-217)
T1 sequence (looked up): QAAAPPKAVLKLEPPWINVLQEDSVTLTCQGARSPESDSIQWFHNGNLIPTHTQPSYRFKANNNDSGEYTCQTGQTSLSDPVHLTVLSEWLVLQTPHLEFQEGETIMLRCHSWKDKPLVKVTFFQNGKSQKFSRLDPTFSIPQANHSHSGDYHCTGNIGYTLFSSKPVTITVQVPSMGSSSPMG

T2: FcγRIIb extracellular domain with C-terminal His tag (human, UniProt P31994 43-217)
T2 sequence (looked up): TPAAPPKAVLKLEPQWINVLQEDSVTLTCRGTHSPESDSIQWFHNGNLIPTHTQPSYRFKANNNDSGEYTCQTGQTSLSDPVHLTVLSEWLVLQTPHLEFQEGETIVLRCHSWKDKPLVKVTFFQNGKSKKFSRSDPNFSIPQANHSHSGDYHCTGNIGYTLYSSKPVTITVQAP

T3: human FcγRIIa type R (Arg131) extracellular domain with C-terminal His tag (human, UniProt P12318 34-217)
T3 sequence (looked up): T1 sequence (looked up)

T4: human FcγRIIb extracellular domain with C-terminal His tag (human, UniProt P31994 43-217)
T4 sequence (looked up): T2 sequence (looked up)

T5: FcγRIIa type H extracellular domain with C-terminal His tag (human, UniProt P12318 34-217)
T5 sequence (looked up): T1 sequence (looked up) with R134H

T6: human FcγRIIa type H (His131) extracellular domain with C-terminal His tag (human, UniProt P12318 34-217)
T6 sequence (looked up): T1 sequence (looked up) with R134H

B1: IL6R-BP541/IL6R-L (antibody, human IgG1, kappa)
heavy: QVQLQESGPGLVKPSETLSLTCAVSGHSISHDHAWSWVRQPPGEGLEWIGFISYSGITNYNPSLQGRVTISRDNSKNTLYLQMNSLRAEDTAVYYCARSLARTTAMDYWGEGTLVTVSSASTKGPSVFPLAPSSKSTSGGTAALGCLVKDYFPEPVTVSWNSGALTSGVHTFPAVLQSSGLYSLSSVVTVPSSSLGTQTYICNVNHKPSNTKVDKKVEPKSCDKTHTCPPCPAPDLLGDDSVFLFPPKPKDTLMISRTPEVTCVVVDVSDEDGEVQFNWYVDGVEVHNAKTKPREEQDNSTYRVVSVLTVLHQDWLNGKEYKCKVSNKALPRPIEKTISKAKGQPREPQVYTLPPSRDELTKNQVSLTCLVKGFYPSDIAVEWESNGQPENNYKTTPPVLDSDGSFFLYSKLTVDKSRWQQGNVFSCSVMHEALHNHYTQESLSLSP
light: not shown
B2: IL6R-BP548/IL6R-L (antibody, human IgG1, kappa)
heavy: B1 heavy with Q276K, Q421E
light: not shown
B3: IL6R-BP544/IL6R-L (antibody, human IgG1, kappa)
heavy: B1 heavy with Q276K, R357Q
light: not shown
B4: IL6R-BP543/IL6R-L (antibody, human IgG1, kappa)
heavy: B1 heavy with D270Q, Q276K
light: not shown
B5: IL6R-BP546/IL6R-L (antibody, human IgG1, kappa)
heavy: B1 heavy with Q276K, L360M
light: not shown
B6: IL6R-BP499/IL6R-L (antibody, human IgG1, kappa)
heavy: B1 heavy with V266I, S269A, D270E, Q276K, P398L
light: not shown
B7: IL6R-BP484/IL6R-L (antibody, human IgG1, kappa)
heavy: B1 heavy with S269A, D270E, E271D, Q276K, D298Y, R332A
light: not shown
B8: IL6R-BP564/IL6R-L (antibody, human IgG1, kappa)
heavy: B1 heavy with D235E, D270E, E274D, Q276K
light: not shown
B9: IL6R-BP559/IL6R-L (antibody, human IgG1, kappa)
heavy: B1 heavy with D235E, D239G, V266I, S269A, D270E, E274D, Q276K, R332A
light: not shown
B10: IL6R-BP549/IL6R-L (antibody, human IgG1, kappa)
heavy: B1 heavy with D235E, S269G, D270E, Q276K, D298Y
light: not shown
B11: IL6R-BP550/IL6R-L (antibody, human IgG1, kappa)
heavy: B1 heavy with D235E, V266I, S269G, D270E, E274D, Q276K
light: not shown
B12: IL6R-BP560/IL6R-L (antibody, human IgG1, kappa)
heavy: B1 heavy with D235E, D239G, S269G, D270E, Q276K
light: not shown
B13: IL6R-BP539/IL6R-L (antibody, human IgG1, kappa)
heavy: B1 heavy with D235E, V266I, S269G, D270E, E274P, Q276K
light: not shown
B14: IL6R-BP562/IL6R-L (antibody, human IgG1, kappa)
heavy: B1 heavy with D235E, E274D, Q276K
light: not shown
B15: IL6R-BP533/IL6R-L (antibody, human IgG1, kappa)
heavy: B1 heavy with V266I, S269G, D270E, Q276K, P398L
light: not shown
B16: IL6R-BP230/IL6R-L (antibody, human IgG1, kappa)
heavy: B1 heavy with Q276K
light: not shown
B17: IL6R-BP545/IL6R-L (antibody, human IgG1, kappa)
heavy: B1 heavy with Q276K, D358E
light: not shown
B18: IL6R-BP542/IL6R-L (antibody, human IgG1, kappa)
heavy: B1 heavy with Q276K, D298F
light: not shown
B19: IL6R-BP547/IL6R-L (antibody, human IgG1, kappa)
heavy: B1 heavy with Q276K, K411R
light: not shown
B20: IL6R-BP557/IL6R-L (antibody, human IgG1, kappa)
heavy: B1 heavy with D235E, S269G, Q276K
light: not shown

Each binder was assayed against T1, FcγRIIa type R extracellular domain … (assay: ratio of SPR KDs vs IL6R-B3/IL6R-L).

First: B1
Second: B2
The “KD (IIaR) of parent polypeptide/KD (IIaR) of altered polypeptide” value (“KD (IIaR) of parent polypeptide/KD” for short) of the first is higher: 2.4 for the first, 2.2 for the second.

First: B3
Second: B4
The “KD (IIaR) of parent polypeptide/KD” value of the first is higher: 2.2 for the first, 1.9 for the second.

B5 was tested, and the “KD (IIaR) of parent polypeptide/KD” value was 2.2.

The binders below were run against T2, FcγRIIb extracellular domain with … (assay: ratio of SPR KDs vs IL6R-B3/IL6R-L).

Compared with B1, B2 is lower in “KD (IIb) of parent polypeptide/KD (IIb) of altered polypeptide” value (“KD (IIb) of parent polypeptide/KD” below): 190 for the first, 162 for the second.

Compared with B3, B4 is lower in “KD (IIb) of parent polypeptide/KD” value: 184 for the first, 152 for the second.

For B5, the “KD (IIb) of parent polypeptide/KD” value was 205.

Biological target: T1, FcγRIIa type R extracellular domain …
Assay: ratio of SPR KDs vs IL6R-B3/IL6R-L
Remark: another data set of the same source

First: B6
Second: B7
The “KD (IIaR) of parent polypeptide/KD” value of the first is higher: 22.3 for the first, 1.4 for the second.

Biological target: T2, FcγRIIb extracellular domain with …
Assay: ratio of SPR KDs vs IL6R-B3/IL6R-L
Remark: another data set of the same source

Compared with B6, B7 is lower in “KD (IIb) of parent polypeptide/KD” value: 2120 for the first, 67.8 for the second.

The binders below were run against T3, human FcγRIIa type R (Arg131) … (assay: SPR).

First: B8
Second: B9
The “KD (IIaR) of parent polypeptide/KD” value of the first is higher: 1.9 for the first, 0.7 for the second.

Compared with B10, B11 is higher in “KD (IIaR) of parent polypeptide/KD” value: 1.9 for the first, 3.3 for the second.

First: B12
Second: B13
The “KD (IIaR) of parent polypeptide/KD” value of the first is lower: 0.3 for the first, 3.4 for the second.

For B14, the “KD (IIaR) of parent polypeptide/KD” value was 1.6.

These binders were tested against T4, human FcγRIIb extracellular domain with … (assay: SPR).

First: B15
Second: B8
The “KD (IIb) of parent polypeptide/KD” value of the first is higher: 756 for the first, 141 for the second.

First: B9
Second: B10
The “KD (IIb) of parent polypeptide/KD” value of the first is lower: 110 for the first, 196 for the second.

Compared with B11, B12 is lower in “KD (IIb) of parent polypeptide/KD” value: 406 for the first, 16.8 for the second.

Compared with B13, B14 is lower in “KD (IIb) of parent polypeptide/KD” value: 369 for the first, 131 for the second.

What follows are binders tested against T5, FcγRIIa type H extracellular domain … (assay: SPR).

B16 and B1 are within 1.5-fold of each other in Kd: 9.7 µM for the first, 9.3 µM for the second.

B17 and B2 are within 1.5-fold of each other in Kd: 9.1 µM for the first, 9.4 µM for the second.

B18 and B19 are within 1.5-fold of each other in Kd: 9.7 µM for the first, 7.5 µM for the second.

Going from B3 to B4, the Kd falls from 12 µM to 7.4 µM (1.6-fold).

For B5, the Kd was 10 µM.

What follows are binders tested against FcγRIIIa type V extracellular domain with C-terminal His tag (human, UniProt P08637 17-208) (assay: SPR).
Sequence of FcγRIIIa type V extracellular domain with C-terminal His tag (P08637 17-208 F176V): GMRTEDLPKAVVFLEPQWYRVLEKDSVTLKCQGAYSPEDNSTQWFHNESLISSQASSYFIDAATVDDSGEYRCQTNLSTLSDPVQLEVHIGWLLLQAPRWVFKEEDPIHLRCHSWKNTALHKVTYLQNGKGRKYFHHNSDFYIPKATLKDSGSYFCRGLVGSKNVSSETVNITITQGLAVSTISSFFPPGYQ

B16 and B1 are within 1.5-fold of each other in Kd: 39 µM for the first, 41 µM for the second.

B17 and B2 are within 1.5-fold of each other in Kd: 45 µM for the first, 34 µM for the second.

B18 and B19 are within 1.5-fold of each other in Kd: 43 µM for the first, 35 µM for the second.

B3 and B4 are within 1.5-fold of each other in Kd: 45 µM for the first, 46 µM for the second.

Binder B5 has a Kd of 37 µM.

What follows are binders tested against T2, FcγRIIb extracellular domain with … (assay: ratio of SPR KDs, FcγRIIaR over FcγRIIb, same variant).

Compared with B1, B2 is lower in “KD (IIaR)/KD (IIb)” value: 27.8 for the first, 26.2 for the second.

Compared with B3, B4 is lower in “KD (IIaR)/KD (IIb)” value: 28.8 for the first, 27.3 for the second.

B5 was tested, and the “KD (IIaR)/KD (IIb)” value was 32.8.

What follows are binders tested against T2, FcγRIIb extracellular domain with … (assay: ratio of SPR KDs, FcγRIIaH over FcγRIIb, same variant).

First: B6
Second: B7
The “KD (IIaH)/KD (IIb)” value of the first is higher: 685 for the first, 241 for the second.

Biological target: T2, FcγRIIb extracellular domain with …
Assay: ratio of SPR KDs, FcγRIIaR over FcγRIIb, same variant
Remark: another data set of the same source

Going from B6 to B7, the “KD (IIaR)/KD (IIb)” value falls from 33.8 to 17.1.

Biological target: T4, human FcγRIIb extracellular domain with …
Assay: SPR
Remark: another data set of the same source

B11 was tested, and the “KD (IIaH)/KD (IIb)” value was 656.

Biological target: T4, human FcγRIIb extracellular domain with …
Assay: SPR
Remark: another data set of the same source

First: B15
Second: B13
The “KD (IIaR)/KD (IIb)” value of the first is lower: 28.3 for the first, 38 for the second.

Each binder was assayed against T6, human FcγRIIa type H (His131) … (assay: SPR).

Going from B20 to B8, the Kd falls from 15 µM to 10 µM (1.5-fold). The second binds more tightly here.

First: B9
Second: B10
The Kd of the first is 1.8-fold higher: 20 µM for the first, 11 µM for the second.

First: B12
Second: B14
The Kd of the first is 2.8-fold higher: 31 µM for the first, 11 µM for the second. The second binds more tightly here.

Each binder was assayed against human FcγRIIIa type V (Val158) extracellular domain with C-terminal His tag (human, UniProt P08637 17-208) (assay: SPR).
Sequence of human FcγRIIIa type V (Val158) extracellular domain with C-terminal His tag (P08637 17-208 F176V): as above

B20 and B15 are within 1.5-fold of each other in Kd: 29 µM for the first, 27 µM for the second.

B8 and B9 are within 1.5-fold of each other in Kd: 49 µM for the first, 44 µM for the second.

Compared with B10, B11 is 2-fold higher in Kd: 24 µM for the first, 48 µM for the second.

B12 and B13 are within 1.5-fold of each other in Kd: 41 µM for the first, 34 µM for the second.

With B14 the Kd was 53 µM.
